In US11666658B2, “Rifamycin analogs and antibody-drug conjugates thereof” (Regeneron Pharmaceuticals, Inc., priority 2018, dated 2023):

Columns and labels:
[1] = biological target: T1, Ox-LDL binding to His9-hMSR1 (Homo sapiens, UniProt P21757); assay: Competition sandwich ELISA, Ox-LDL; conditions: anti-MSR1 antibody 500 nM, Ox-LDL 10 nM
T1 construct: human MSR1 extracellular domain expressed with a N-terminal nonahistidine tag; purchased R&D Systems 2708-MS
T1 sequence (P21757 77-451 limits assumed): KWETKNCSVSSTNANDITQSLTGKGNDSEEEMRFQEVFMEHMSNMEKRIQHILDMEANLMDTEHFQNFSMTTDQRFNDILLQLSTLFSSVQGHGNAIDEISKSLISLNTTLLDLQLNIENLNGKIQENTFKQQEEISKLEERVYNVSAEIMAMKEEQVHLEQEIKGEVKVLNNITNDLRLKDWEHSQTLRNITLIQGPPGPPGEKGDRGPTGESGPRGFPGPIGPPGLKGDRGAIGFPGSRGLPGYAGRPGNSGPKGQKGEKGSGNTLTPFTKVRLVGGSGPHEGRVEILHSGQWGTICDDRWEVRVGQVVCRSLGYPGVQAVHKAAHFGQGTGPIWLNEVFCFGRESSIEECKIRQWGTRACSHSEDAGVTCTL
Experimental: (§1) The ability of anti-MSR1 antibodies disclosed herein to block the binding of various ligands to human MSR1 was measured using three competition sandwich ELISA assays. The ligands used in the assays were: (1) acetylated LDL (Ac-LDL), (2) oxidized LDL (Ox-LDL), and (3) advanced glycation end-products of bovine serum albumin (AGE-BSA).
(§2) Anti-MSR1 antibodies or isotype control antibodies were serially diluted as appropriate for each tested ligand and added in duplicate for each serial dilution set to microtiter plates coated with His9-hMSR1. Buffer alone was also added to wells on each coat. […] This assay was conducted in four different assay runs.
(§3) Data analysis was performed using a sigmoidal dose-response model within Prism™ software (GraphPad). Percent blockade at maximum concentration of the antibody tested in each assay was calculated as an indicator of the ability of the antibodies to block the binding of Ac-LDL, Ox-LDL or biot-AGE-BSA to His9-hMSR1 on the plate relative to the baseline of the assay. In the calculation, binding signal of the same concentrations of Ac-LDL, Ox-LDL, or biot-AGE-BSA used for the assays in the absence of antibody was referenced as 100% binding or 0% blocking, while the baseline of the assay, defined as binding signal of the sample of buffer without MSR1 ligands or antibody, was referenced as 0% binding or 100% blocking. The maximum percent blockade at the highest concentration of antibody tested in each assay are reported for all antibodies.

[2] = biological target: T2, Ac-LDL binding to His9-hMSR1 (Homo sapiens, UniProt P21757); assay: Competition sandwich ELISA, Ac-LDL; conditions: anti-MSR1 antibody 100 nM, 50 pM Ac-LDL
T2 construct: human MSR1 extracellular domain expressed with a N-terminal nonahistidine tag; purchased R&D Systems 2708-MS
T2 sequence (P21757 77-451 limits assumed): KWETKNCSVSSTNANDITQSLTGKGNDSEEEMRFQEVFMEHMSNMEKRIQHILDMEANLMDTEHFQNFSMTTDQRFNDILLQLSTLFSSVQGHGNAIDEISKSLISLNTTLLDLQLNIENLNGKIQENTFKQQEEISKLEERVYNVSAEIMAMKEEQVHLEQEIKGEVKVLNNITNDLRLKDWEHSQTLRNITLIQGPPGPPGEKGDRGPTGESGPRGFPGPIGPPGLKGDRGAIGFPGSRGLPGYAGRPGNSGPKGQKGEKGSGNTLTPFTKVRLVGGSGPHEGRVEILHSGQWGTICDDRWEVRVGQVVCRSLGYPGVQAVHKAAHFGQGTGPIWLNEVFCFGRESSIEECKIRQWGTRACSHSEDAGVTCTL
Experimental: as §1, §2, §3

[3] = biological target: T3, biot-AGE-BSA binding to His9-hMSR1 (Homo sapiens, UniProt P21757); assay: Competition sandwich ELISA, biot-AGE-BSA; conditions: anti-MSR1 antibody 300 nM, 400 pM biot-AGE-BSA
T3 construct: human MSR1 extracellular domain expressed with a N-terminal nonahistidine tag; purchased R&D Systems 2708-MS
T3 sequence (P21757 77-451 limits assumed): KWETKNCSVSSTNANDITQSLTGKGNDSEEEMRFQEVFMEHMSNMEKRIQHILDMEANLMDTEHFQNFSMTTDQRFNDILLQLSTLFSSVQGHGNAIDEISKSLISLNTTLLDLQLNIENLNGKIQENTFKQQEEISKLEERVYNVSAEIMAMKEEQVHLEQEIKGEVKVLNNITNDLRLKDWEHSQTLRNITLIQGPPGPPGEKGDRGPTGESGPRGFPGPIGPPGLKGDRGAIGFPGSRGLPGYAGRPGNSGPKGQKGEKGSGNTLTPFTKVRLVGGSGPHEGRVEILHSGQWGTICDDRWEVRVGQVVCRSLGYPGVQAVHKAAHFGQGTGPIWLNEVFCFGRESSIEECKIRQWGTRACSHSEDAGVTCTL
Experimental: as §1
For the assay, recombinant monomeric human MSR1 protein comprised of a portion of the human MSR1 extracellular domain expressed with a N-terminal 9-Histidine tag (SEQ ID NO: 688) (His9-hMSR1; R&D Systems, Cat #2708-MS) was coated at a concentration of […] in PBS on a 96-well microtiter plate overnight at 4° C. for use in competition ELISA assays with Ac-LDL, Ox-LDL, or biotinylated-AGE-BSA (“biot-AGE-BSA”). […] Anti-MSR1 antibodies or isotype control antibodies were serially diluted as appropriate for each tested ligand and added in duplicate for each serial dilution set to microtiter plates coated with His9-hMSR1. Buffer alone was also added to wells on each coat. After 1 hour incubation at room temperature, without wash, a final constant concentration of 50 pM Ac-LDL (Life Technologies/ThermoFisher Scientific, Cat #L-35354), 5 nM or 10 nM Ox-LDL (Alfa Aesar, Cat #J65591), or 400 pM biot-AGE-BSA (R&D Systems, Cat #BT4127) were added to plates with His9-hMSR1, and the plates were incubated for an additional 1 hour at room temperature. (Concentrations of Ac-LDL, Ox-LDL and biot-AGE-BSA for antibody inhibition assays were selected from the approximate midway point within the linear portion of individual binding curves of Ac-LDL, Ox-LDL or biot-AGE-BSA to plate-coated His9-hMSR1.) Wells were washed, and plate-bound Ac-LDL or Ox-LDL were detected with anti-LDL rabbit antibody (Alfa Aesar, Cat #J64398) in combination with anti-rabbit IgG (H+L) specific donkey polyclonal antibodies conjugated with horseradish peroxidase (HRP) (JacksonImmunoResearch, Cat #711-035-152) and biot-AGE-BSA was detected with a streptavidin-HRP (ThermoFisher Scientific, Cat #N200). Plates were developed using TMB substrate solution (BD Biosciences, Cat #51-2606KC & Cat #51-2607KC) according to manufacturer's recommendation and absorbance at 450 nm was measured on a Victor™ Multilabel Plate Reader (PerkinElmer™). This assay was conducted in four different assay runs.
as §3, with “antibodies. Negative percent blockade numbers reflected higher MSR1 ligands binding to plate coated His9-hMSR1 in the presence of antibodies.” for “antibodies.”

His9-hMSR1 = biological target: T4, His9-hMSR1 (Homo sapiens, UniProt P21757); assay: Cross-competition between anti-MSR1 antibodies (OCTET bio-layer interferometry); format: binding; conditions: label = first mAb (mAb-1) on His9-hMSR1 captured with anti-Penta-His Octet biosensors; value = competing mAb-2
T4 construct: human MSR1 extracellular domain expressed with a N-terminal nonahistidine tag; purchased R&D Systems 2708-MS
T4 sequence (P21757 77-451 limits assumed): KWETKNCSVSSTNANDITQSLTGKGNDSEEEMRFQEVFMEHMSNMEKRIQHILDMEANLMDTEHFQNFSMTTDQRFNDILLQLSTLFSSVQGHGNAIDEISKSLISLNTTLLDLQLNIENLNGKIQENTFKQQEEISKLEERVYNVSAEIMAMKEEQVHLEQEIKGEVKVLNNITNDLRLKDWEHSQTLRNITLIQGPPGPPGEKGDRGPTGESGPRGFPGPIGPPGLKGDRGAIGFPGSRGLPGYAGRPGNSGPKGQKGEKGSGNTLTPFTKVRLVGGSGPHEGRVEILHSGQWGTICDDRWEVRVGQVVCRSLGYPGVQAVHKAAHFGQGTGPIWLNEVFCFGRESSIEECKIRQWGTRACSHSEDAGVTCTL
Experimental: Binding competition between different anti-MSR1 antibodies was assessed using a real time, label-free bio-layer interferometry assay on an OCTET® HTX biosensor platform (Pall FortéBio Corp., Menlo Park, Calif.). The experiment was performed at 25° C. in 10 mM HEPES, 150 mM NaCl, 3 mM EDTA, 0.05% v/v Surfactant Tween-20, and 1 mg/mL BSA, pH 7.4 (HBS-EBT) buffer with the plate shaking at the speed of 1000 rpm.
To assess whether different antibodies are able to compete with one another for binding to their respective epitopes on the recombinant human MSR1 extracellular domain expressed with a N-terminal nonahistidine tag (SEQ ID NO: 688) (His9-hMSR1; R&D Systems, Cat #2708-MS), around […] of His9-hMSR1 was first captured onto anti-Penta-His antibody coated OCTET® biosensor tips (“Penta-His” disclosed as SEQ ID NO: 690) (Pall FortéBio Corp., #18-5122) by submerging the biosensor tips for 45 seconds into wells containing a […] solution of His9-hMSR1. The antigen-captured biosensor tips were then saturated with a first anti-MSR1 monoclonal antibody (subsequently referred to as “mAb-1”) by immersion into wells containing a […] solution of mAb-1 for 4 minutes. The biosensor tips were then submerged into wells containing a […] solution of a second anti-MSR1 monoclonal antibody (subsequently referred to as “mAb-2”) for 4 minutes. All of the biosensor tips were washed in HBS-EBT buffer in between each step of the experiment. The real-time binding response was monitored during the course of the experiment and the binding response at the end of each step was recorded. […] Table 17 explicitly defines the relationships of antibodies competing in both directions, independent of the order of binding.

- % Blocking of Ox-LDL binding to His9-hMSR1 [1]: 97%
- % Blocking of Ac-LDL binding to His9-hMSR1 [2]: 105%
- % Blocking of biot-AGE-BSA binding to His9-hMSR1 [3]: 96%
- mAb-2 antibodies which Compete with mAb-1 (His9-hMSR1): Data Inconclusive**
B1: H1H21227N-N297Q: "modified versions of 21227N (H1H21227N-N297Q and H1H21227N-N297D)"; anti-MSR1 antibody "with a N297Q single point mutation" (antibody, V domains shown)
VH: QVQLVQSGAEVKKPGASVKVSCKVSGYTLTELSIHWVRQVPGKGLEWMGGFDPEEGETIFAQEFRDRVTLTEDTSPDTAYMELSSLKSEDAAVYYCTTPRYCNNGICYDYWGQGTLVTVSS
VL: DIQMTQSPSSLSASVGDRVTITCRASQSISNYLNWYQQKPGKAPKLLIYTASSLQSGVPSRFSGSGSGTDFTLTISSLQTEDFATYYCQQSYSNFPITFGQGTRLEIKR
